Measured values as given in IntAct's records for PubMed 15522217.

B1: Crk-like protein (Homo sapiens), P46109 (parent)
chain: MSSARFDSSDRSAWYMGPVSRQEAQTRLQGQRHGMFLVRDSSTCPGDYVLSVSENSRVSHYIINSLPNRRFKIGDQEFDHLPALLEFYKIHYLDTTTLIEPAPRYPSPPMGSVSAPNLPTAEDNLEYVRTLYDFPGNDAEDLPFKKGEILVIIEKPEEQWWSARNKDGRVGMIPVPYVEKLVRSSPHGKHGNRNSNSYGIPEPAHAYAQPQTTTPLPAVSGSPGAAITPLPSTQNGPVFAKAIQKRVPCAYDKTALALEVGDIVKVTRMNINGQWEGEVNGRKGLFPFTHVKIFDPQNPDENE

Variants of: B1
Settings: with insr_human INSR

Question: With H33R;S53P;K72R as the variant, how does the “effect of a mutation on the interaction” value read?
Answer: The value was “decreasing interaction”.

Variants of: B1
Settings: with insr_human INSR
Remark: another data set of the same source

Question: H33R;S53P;K72R was tested. Which “effect of a mutation on the interaction” value did it give?
Answer: Its value is “decreasing interaction”.
